Results on 32 sequences are retold here after the DeepSol protein solubility set.

A short description of this data set: soluble on expression in E. coli; label from the status in PepcDB or PDB records.
Take “NVYDLANELERAVRALPEYQAVLTAKSAIESDADAQVLWQDFLATQSKVQEMMQSGQMPSQEEQDEMSKLGEKIESNDLLKVYFDQQQRLSVYMSDIEKIVFAPMQDL”: the “soluble on expression in E. coli” value was “soluble”.
For “PAKLGYWKLRGLAQPVRLFLEYLGEEYEEHLYGRDDREKWMSEKFNMGLDLPNLPYYIDDKCKLTQSVAIMRYIADKHGMLGTTPEERARISMIEGAAMDLRIGFGRVCYNPKFEEVKEEYVKELPKTLKMWSDFLGDRHYLTGSSVSHVDFMLYETLDSIRYLAPHCLDEFPKLKEFKSRIEALPKIKAYMESKRFIKWPLNGWAASFGAGDAPPS” the value was “soluble”.
Regarding “PDEKIVRIHSSSGTTGSPVIIPYTQKDVDVWSEMMMRCYQMAGVTNNDRVHITPGYGLWTAGIGFQLGAERLGAMAIPMGPGNTEKQLQMMVDLKSTVLTSTSSYALLLAEEIRKKGIQDKIHLKIGVIGSERWSEKMRNRIESELGIKSFDIYGLTEIYGPGIALDCEYHEGMHYW”, the “soluble on expression in E. coli” value is “not soluble”.
For the sequence “PDGQDLAEARQRLDDSLEQAHQQHKALYERLMAYKTQPRMKTWLNELVWAHNQALWDAPTKVLAQGEPDPHLLLTTQLAPELLNTRKELMLISAYFVPGQEGLLYLTGRADAGVNVSLLTNSLEATDVPAVHGGYAPYRKALLEHGVKLYELRRQPGETETMRSSGPHLFRKSHSLVSSESSLHSKAMIFDRQKVFVGSFNFDPRSVLWNTEVGVLVDSPQLAEELRELTLQGMAPSLTYEARLEDGKVVWVTE”, the “soluble on expression in E. coli” value is given as “soluble”.
In the case of “PGSMTVTQSQLELLIRNAFPEAEITVTSLVGDNNHYSIKVISSQFQGKSKLEQHRMIYKVLDGLNIHAIQIQTGCK”, the “soluble on expression in E. coli” value is listed as “soluble”.
As to “PHMQPFDSGHDDLVHDVVYDFYGRHVATCSSDQHIKVFKLDKDTSNWELSDSWRAHDSSIVAIDWASPEYGRIIASASYDKTVKLWEEDPDQEECSGRRWNKLCTLNDSKGSLYSVKFAPAHLGLKLACLGNDGILRLYDALEPSDLRSWTLTSEMKVLSIPPANHLQSDFCLSWCPSRFSPEKLAVSALEQAIIYQRGKDGKLHVAAKLPGHKSLIRSISWAPSIGRWYQLIATGCKDGRIRIFKITEKLSPLASEESLTNSNMFDNSADVDMDAQGRSDSNTEEKAELQSNLQVELLSEHDDHNGEVWSVSWNLTGTILSSAGDDGKVRLWKATYSNEFKCMSVITAQQ”, the “soluble on expression in E. coli” value was “soluble”.
In the case of “PKLSQDEIDDLKDVFELFAFWDGRDGAVDAFKLGDVCRCLGINPRNEDVFAVGGTHKMGEKSLPFEEFLPAYEGLMDCEQGTFADYMEAFKTFDREGQGFISGAELRHVLTALGERLSDEDVDEIIKLTDLQEDLEGNVKYEDFVKKVMAGPYPDK”, the “soluble on expression in E. coli” value was “soluble”.
The result for “PKPLKNLDGQFCEICGDQIGLTVEGDLFVACNECGFPACRPCYEYERREGTQNCPQCKTRYKRLRGSPRVEGDEDEEDID” reads “soluble”; that for “PKYQANTQILVNQTKGDNPQFMAQEVQSNIQLVNTYKEIVKSPRILDEVSKDLNDKYSPSKLSSMLTITNQENTQLINIQVKSGHKQDSEKIANSFAKVTSKQIPKIMSVDNVSILSKADGTAVKVAPKT”, “not soluble”.
For “PMVALVGARNASSLGLRMARKLAAALGEAGYVVVSGLARGIDAEAHAAALGQGTVAVQAGGVDVIYPAENAGLAAEIAARGCRISEQPMGLVPQARHFPLRNRIVSGLARAVVVVEAAARSGSLITAREALDQGREVLAVPGHPFDPRAAGGNQLIREGATLVRHAADVIEAIGTAHPA” the value was “not soluble”; for “PNARSQPSKTLFVKGLSEDTTEETLKESFDGSVRARIVTDRETGSSKGFGFVDFNSEEDAKAAKEAMEDGEIDGNKVTLDWAKPKGEGG”, “soluble”.
For the sequence “PPNEQAVLNMYEGKRSELSQIYSNITDLEMQVSEHSLVINAIQPLDQSRKCFRMIGGVLVERTIKEVLPAVQRNKDGLEEVVRKLYETLEKKKKDLTEFEAKYKIRITKQEDNKEGGNKKEGNAQGVLVGAASSSQ”, the “soluble on expression in E. coli” value was “not soluble”.
On to “PPYTIVYFPVRGRAEAMRMLLADQGQSWKEEVVTIDTWMQGLLKPTCLYGQLPKFEDGDLTLYQSNAILRHLGRSLGLYGKNQREAAQMDMVNDGVEDLRGKYVTLIYTNYENGKNDYVKALPGHLKPFETLLSQNQGGKAFIVGDQISFADYNLLDLLLIHQVLAPGCLDNFPLLSAYVARLSARPKIKAFLSSPEHVNRPINGNGKQ”, for which the “soluble on expression in E. coli” value is reported as “soluble”.
Consider “PQFHLWKRPVVTAHIEGQPVEVLLDTGADDSIVTGIELGPHYTPKIVGGIGGFINTKEYKNVEVEVLGKRIKGTIMTGDTPINIFGRNLLTALGMSLNF”, for which the “soluble on expression in E. coli” value is given as “soluble”.
As for “PRRGPVAKRDVLPDPIYNSKLVTRLINKIMIDGKKSKAQKILYTAFDIIRERTGKDPMEVFEQALKNVMPVLEVRARRVGGANYQVPVEVRPDRRVSLGLRWLVQYARLRNEKTMEERLANEIMDAANNTGAAVKKREDTHKMAEANKAFAHYRW”, the “soluble on expression in E. coli” value is listed as “soluble”.
Regarding “PRYTEVTEEQIIVKQIWGQLVFDRKEMEIVPIGKDDLKSSLRTFGNGGLFGYAGYFRNKKLGKYRMYVTRLKDLSLLTDRNGKKTVINLRQV”, the “soluble on expression in E. coli” value was “not soluble”.
With “PSETFYRAKIQEQRERHARYHDTTYNLEPDIKSTPGGLRDIHTLSWVARRHFGATSLLEMSRYGFLTDAEYRELVECQDFLWRVRFALHIELRRYDNRLTFAHQAQVAENLGYVGEGNRGVEMMMKEFYRTLRRVAELNKMLLKLFDQAIINGGATENAEILDADFQRRGSLIEARKPALFQARPETILDMFLHIANDSTIEGVSPPTLRQLRTARRRLN”, the “soluble on expression in E. coli” value was “not soluble”.
Regarding “PSTLLKNYQDNNKMLVLALENEKSKVKEAQDIILQLRKECYYLTCQL”, the “soluble on expression in E. coli” value is reported as “soluble”.
Consider “PTANIMFDRRVVRGNTYAARILPADATQTQTKGPSPASTKKRTTRTLPPRTPEAVDGRRHIDIQTDVYLEELTDTVPEADTSTQTDAFLDRPPTPLFVPQKTGTDAITQIENGDLFDFDFEVEPILEVLVGKVLEQGLMEVLEEEELAAMRAHQEHFEQIRNAELVATQRMEAAERRKLEEKERRMQQERERVERERVVRQKVAASAFARGYLSGIVNTVFDRLVSSGYIYDPVMREVETAFMPWLKEQAIGYLARGVVARRVVDKLVEDAAAALAANRSTLADKAASTAATVDAWAERQAKMEAELQGKELEAVRRRPTFVLRELKPAVASADAVEAAAAELTAQAEEAANAKWEA”, for which the “soluble on expression in E. coli” value is “not soluble”.
For “PVNTKRSNGTKRVEFPTTKKSMCIGNSTPNEQETFRAKVDEIWFRLTQKTDGTVMRDFLIEKAAEYFKQPEQPKQNAIEVISAIMAPQEEQTKSKADLYKFLAMFGPYETIMLKIASLLLISNNKGHWLTFDPQAEKNANNQRDSISGWFDQNEPNCLILKTPTGIRKIWNKPLIEATGQYLMDENGEKYDSWDKYFEMKPIETYLTAYPTFAPMHHHHHH” the value was “soluble”.
Regarding “PVPATPILQLEECCTHNNSATLSWKQPPLSTVPADGYILELDDGNGGQFREVYVGKETMCTVDGLHFNSTYNARVKAFNKTGVSPYSKTLVLQTSEG”, the “soluble on expression in E. coli” value is “soluble”.
Consider “PVYAGGQVARGGQLGVLGNADIMDVPFTMTSYTEQLIEDQQAEDVGDVLLNDASVRQSSGYANASKIFVIRGLKLTTDDISYNGLYGVLPRQIISTDALERVEVFKGPNA”, for which the “soluble on expression in E. coli” value was “not soluble”.
The result for “QAALNSLGTNSVAATTAAQKIDQVATQPLMSFGVTMATFAAQNYGAHQYERIITGVKQTMWLSGSFSVAAGLIEIIWGKQLVGFFVGHQDMAVLNL” reads “not soluble”; that for “QEAQANTESEKRRLDSVITHMSDGILATDRRGRVRIANDMALKMLGLAKEDVIGYYMLGVLNLENEFSLEEIQENSDSFLLDINEEEGIIARVNFSTIVQETGFVTGYIAVLHDVT”, “not soluble”; that for “QGHMAWSAQQYLKFEDERTRPARDLLAQVPLERVLNGYDLGCGPGNSTELLTDRYGVNVITGIDSDDDMLEKAADRLPNTNFGKADLATWKPAQKADLLYANAVFQWVPDHLAVLSQLMDQLESGGVLAVQMPDNLQEPTHIAMHETADGGPWKDAFSGGGLRRKPLPPPSDYFNALSPKSSRVDVWHTVYNHPMKDADSIVEWVKGTGLRPYLAAAGEENREAFLADYTRRIAAAYPPMADGRLLLRFPRLFVVAVKK”, “soluble”.
Turning to “QILVVRNQVIFPYNGFELDVGRERSKKLIKALKNLKTKRLVLVTQKNSDQLNPEFDDIYHCGTLCDIDEIIEVPSEDGKTADYKIKGKGLQRVAITSFSDADLTKYDHHFLNSTLTENKALDKLLERIFPDKEDFAEILDSLNSFLELQELKKLSKVPKDIKRYDIITFKLASLIFKDITLQQAILEENDIEKRLQKIIGS”, the “soluble on expression in E. coli” value is on record as “soluble”.
On to “QIQLVQSGPELKKPGETVRISCKASDYSFMTSGMQWVQQMPGKGLKWIGWLNTQSGVPEYAEDFKGRFAFSLETSATTAYLQINNLKNEDTATYFCATWGGNSAYWGQGTTLTVSSAKTTPPSVYPLAPGSAAQTNSMVTLGCLVKGYFPEPVTVTWNSGSLSSGVHTFPAVLQSDLYTLSSSVTVPSSTWPSETVTCNVAHPASSTKVDKKIVPRDC”, for which the “soluble on expression in E. coli” value is reported as “soluble”.
With “QKDFSWNASLLYAFNRNKVKHISVQPSLWDSRISMPTSYPMVGKPLYGIYAYKWAGLNENGDPQVYDAENNVTSGPARDYHALVYCGTTVPIHNASLTNVLRYKGFEFSAMLILDAGHKLRSSNIPSINMSNGRITSTAKGIVDRWTQPGDVTDVPRLLFSNDTENFNTHRTELYRYSDLFVYDASNIRLSNISLAYRVPAHWCKKISLSGARLQFNVENVATFAFDSKANYDLGGKVKPNYVWGLYLNF”, the “soluble on expression in E. coli” value was “not soluble”.
As for “QLHELANTFGQDLQRRYGEKVHKLTLHGGFSCPNRDGTIGKGGCTFCNVASFADEQEQFKSIHDQLTDRAGEVQRAKKYLAYFQAYTSTFAEVQVLKNMYEEALKAANIVGLCVGTRPDCVPDAVLDLLKGYVDDGYEVWLELGLQTANDKTLKRINRGHDFACYDAITRKARSLGIKVCTHLIIGLPGDTRDDNRQTLDKVLATGTDGIKLHPLHIVEGSTLAKAWRAGKLDAPEMDEYVDIACELIRLTPPEVVYHRVSATARQPTLLSPLWCEPRWLGLTNVGMALNNSGPQGS”, the “soluble on expression in E. coli” value is recorded as “not soluble”.
Turning to “QLTAAQELMIQQLVAAQLQCNKRSFSDQPKVTPWPLGADPQSRDARQQRFAHFTELAIISVQEIVDFAKQVPGFLQLGREDQIALLKASTIEIMLLETARRYNHETECITFLKDFTYSKDDFHRAGLQVEFINPIFEFSRAMRRLGLDDAEYALLIAINIFSADRPNVQEPGRVEALQQPYVEALLSYTRIKRPQDQLRFPRMLMKLVSLRTLSSVHSEQVFALRLQDKKLPPLLSEIWDVHE”, the “soluble on expression in E. coli” value is listed as “not soluble”.
For “QLTPFQQEVSRGLKKSVCHKENMLIHAVTGAGKTEMIYETLASILNQGGAVALASPRIDVCIELYKRLSRDFSCPISLLYGESEAYERSPLVIATTHQLLKFYRAFDLLIIDEVDAFPFVDNKMLYYAVDHCLKSDGVKVFLTATS”, the “soluble on expression in E. coli” value is on record as “not soluble”.
For “QLVLTQSSSASFSLGASAKLTCTLSSQHSTYTIEWYQQQPLKPPKYVMDLKQDGSHSTGDGIPDRFSGSSSGADRYLSISNIQPEDEAMYICGVGDTIKEQFVYVFGGGTKVTVLGEPKSTPTLTVFPPSSEELKENKATLVCLISNFSPSGVTVAWKANGTPITQGVDTSNPTKEGNKFMASSFLHLTSDQWRSHNSFTCQVTHEGDTVEKSLSPAECL”, the “soluble on expression in E. coli” value was “soluble”.
